Assay results: PMC5797146 (Scientific Reports, 2018)
Residue numbers refer to the chain shown, from its start. In names and notes the source's numbering stands.

B1: A26.8 VHH Q101K, T103M (VHH)
VHH: QVKLEESGGGLVQAGGSLRLSCAASERTFSRYPVAWFRQAPGAEREFVAVISSTGTSTYYADSVKGRFTISRDNAKVTVYLQMNNLKREDTAVYFCAVNSKRMRLQDPNEYDYWGQGTQVTVSS
notes: source: E. coli TG1, periplasmic extract, purified (IMAC, SEC)
B2: A26.8 VHH Q101K, T103K (VHH)
VHH: B1 VHH with M103K
notes: as for B1

Biological target: T1, Clostridium difficile toxin A (Clostridioides difficile …, UniProt P16154)
T1 construct: also called TcdA
Test: SPR
Settings: both partners purified

Binder	Kd	koff	kon
B1	8 nM	0.027 s⁻¹	3.3e+06 M⁻¹ s⁻¹
B2	8.2 nM	0.04 s⁻¹	5e+06 M⁻¹ s⁻¹
